± gives the uncertainty stated by the source.

Experimental findings from the supplement of paper PMC12042874 are described below.

The nature of the data set: amyloid nucleation score (Sup35N fusion, yeast selection) (log enrichment); library NNK2; higher = more nucleation; inactive = no reads after selection. The method in brief: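 In psi-negative yeast, Sup35N fusions carrying peptides of 20 random codons were induced with 100 μM copper sulfate for 24 hours. The cells then grew 7 days at 30°C on medium lacking adenine and uracil, and plasmid inserts from input and output were Illumina-sequenced, excluding sequences with under 100 input reads. Nucleation score is the DiMSum log enrichment of output over input reads, centred on the mode score of non-aggregating sequences.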

Take GYVFYNFFYSAQSRLSSLSN: the amyloid nucleation score is 0.52 ± 0.15.
For WIMVI, the amyloid nucleation score is -0.124 ± 0.26.
In turn, FRDVPGRECMRLRVYGMNLP returned an amyloid nucleation score of 0.753 ± 0.21.
Substance WSIPLSLMQSIRSCYNELIN returned an amyloid nucleation score of 3.67 ± 0.11.
The same measure for CDKDMRILHMYGLEASEGVY: 0.526 ± 0.26; for VNKILQEYMACRRNLQTQMW: -0.215 ± 0.3; for LGISLPIEVLSFSLSMARCI: -0.408 ± 0.45.
The same measure for LNVLISYMHRVWRYIVSAR: 0.362 ± 0.35.
The same measure for ISKEMGNYNFGLSKYAKR: -1.06 ± 0.3.
WVDGVLGFKSTLARQSETGG: the amyloid nucleation score is -0.121 ± 1.1.
Substance GASSPGSAMLTVGILEVVVG gave an amyloid nucleation score of -0.375 ± 0.31.
With GVCSSNWVYVLLDVDDVISR, the amyloid nucleation score is -0.564 ± 0.39.
YGLWIKS: the amyloid nucleation score is -0.127 ± 1.1.
The same measure for YIWRLLLLRGCTVNFMSCNM: 5.62 ± 0.067.
The same measure for PVLVGESHSIGL: 0.863 ± 0.24; for SMCDNQKLATDFVSAPRKYG: -0.73 ± 0.79.
The same measure for VLDINIFMISYCFHMHYDQV: 5.49 ± 0.091.
On to NQRIGKTGFYSRSRARLNKT, for which the amyloid nucleation score stood at 3.37 ± 0.06.
The value for DAYQEKCLCFVHRCYAQGRC was 0.163 ± 0.39; that for VNAVSKGTCLLIWFRDFVAY was -0.113 ± 1.1; that for LGFSGNI was “inactive”.
HMCTFSIICKKVLMSFMGIL: the amyloid nucleation score is 1.93 ± 0.14.
Take SDVELWRYG: the amyloid nucleation score amounted to 2.55 ± 0.065.
The value for YVTELIDCPGWTRRM was -0.006 ± 0.38; that for HKHSISKCAKEALAALLLFV was -0.319 ± 0.76.
Take NRFFAALLFKADLFWSQF: the amyloid nucleation score was -0.021 ± 0.76.
The value for RCCSVAYTIGLLTRRSLATG was 0.451 ± 0.24; that for LGMFSYIS was 0.105 ± 0.44.
The value for MSGFTFKTLGGISHYDFQLD was “inactive”; that for NMMWCVKHYKSVRSLLGCLV was -0.891 ± 0.54; that for SMHEISVLLVDPVTLQYLG was 0.114 ± 0.63.
With GLRFVYLIYTGRS, the amyloid nucleation score is -0.497 ± 0.64.
In the case of NAVEIERNLLQIFQLLNSGE, the amyloid nucleation score is -0.739 ± 0.64.
QYSFKVDKTCRSVH yielded an amyloid nucleation score of 0.147 ± 0.76.
The same measure for SYYFLLLFVQT: -0.017 ± 0.76.
Consider FLSARHGRGFARGFSPP, for which the amyloid nucleation score entry was “inactive”.
For FMDWKLYSDPWAKF, the amyloid nucleation score is -0.639 ± 0.37.
On to KGIQYSTLVTRRFWMW, for which the amyloid nucleation score was 3.68 ± 0.088.
The substance IMNRSSSG displayed an amyloid nucleation score of 1.03 ± 0.36.
The value for HIPRCINLVVRCTVKLVDGS was 2.35 ± 0.14.
YYTWDFWDIFRGWYRRDGIC: the amyloid nucleation score result is “inactive”.
The value for YNAVA was “inactive”.
The same measure for RMDKAGRSGV: 0.656 ± 0.26; for YGKYSFSWEIRCLCEMTTKN: -0.608 ± 0.78; for SIVFSLW: 1.62 ± 0.14.
ASQAHSEIMLVVTMNALHQP gave an amyloid nucleation score of 7.57 ± 0.076.
The same measure for CSSFTQGCKCSF: -0.139 ± 0.37; for GTSLYGFSPTAHVRVSHRGE: 0.957 ± 0.47.
The value for ADEEFRRFIVPSFLPGSCSS was -0.08 ± 0.39.
For the substance VGRGMHTSYFVGTHTWLSVC, the amyloid nucleation score worked out at 4.83 ± 0.11.
Substance WYRLAFQLELPLFHRSYRRW came in with an amyloid nucleation score of 0.288 ± 0.37.
The same measure for CNGYTKRRYTRYSYKWFAVA: -0.15 ± 0.45; for NRKFHIMTFC: 0.415 ± 0.41.
Turning to GFICMVMDKCYYRGRNFVGV, the amyloid nucleation score was -0.106 ± 0.44.
In the case of YFRCVASCVT, the amyloid nucleation score entry was “inactive”.
The same measure for DVLVINKLHLRWAGFDARGI: 5.05 ± 0.1; for CTIIFNLLLAD: 7.396 ± 0.055.
The same measure for LLQILTNQKVNGTCSQRF: -1.48 ± 0.78.
The same measure for VDQRRVHLDERDY: -0.371 ± 0.63; for RCIIIAM: 2.88 ± 0.12; for YFSRWLFFYECKGDNLLRRE: -0.512 ± 0.76.
HVTRQLCPLMSFILGR came in with an amyloid nucleation score of 0.565 ± 0.49.
The same measure for FRNSNLT: -0.462 ± 0.76.
The value for FISGYLSETVMVLVDRRLRC was -0.047 ± 1.1; that for TLFCIVMYCTKVETNFLVLH was 6.45 ± 0.085; that for ISGVSDGQMGFWRNEMGQGS was 0.28 ± 0.39.
The value for NCKYVVTMMLTSGLCAENIW was -0.81 ± 1.
Consider NMCVK, for which the amyloid nucleation score entry was “inactive”.
For CSKRSQTKVITHICARGEVS, the amyloid nucleation score worked out at 0.827 ± 0.28.
The value for GPTSVRISPPGVCVLCPPSP was 0.133 ± 0.31.
The same measure for WESLVETSSTLFLRECYNVF: -1.86 ± 0.53.
The same measure for FYSAVYMLFIVMWFGY: “inactive”; for LIFNYRVFLSFSW: -0.356 ± 1.1.
As for VMSFTASA, the amyloid nucleation score came out at 0.607 ± 0.51.
PHLFRPGTADVLYHYMTMRK registered an amyloid nucleation score of 0.628 ± 0.37.
On to NFKWVVAVMG, for which the amyloid nucleation score was 0.789 ± 0.2.
The value for LFSYQYCVVRMVLFIRL was -0.588 ± 0.53; that for ITYNTS was 0.936 ± 0.44; that for HWGLNTWPYSDFGVTLLRGH was -0.477 ± 0.76.
As to SWRNSKISMPNSAFTSQDTV, the amyloid nucleation score is 0.052 ± 0.31.
The same measure for LLYTCFGVREVQMVTYRNAS: 4 ± 0.063.
The value for TIGGEASVPRRMPLYTLQCE was 6.03 ± 0.088; that for EGTTKFDWHYYQVSTGNFAS was 1.05 ± 0.51; that for ILLNTSYVYLTDSMEFTVGL was 2.15 ± 0.14.
As to CLLGMYIVTDTARMTVCVGL, the amyloid nucleation score stood at 0.444 ± 0.49.
The value for FRLHLKEFDGVPRWCQYTF was “inactive”.
The value for SGSAESFLT was 0.195 ± 0.53.
The value for MSLLYGS was 0.523 ± 0.64.
Regarding KSIGTAGFDN, the amyloid nucleation score was -0.846 ± 0.42.
Take FTFVWNVVQFGTFYGSHLRG: the amyloid nucleation score came out at 4.5 ± 0.071.
Turning to YGVEAECLEKNAALLCYNID, the amyloid nucleation score result was “inactive”.
QHRFFQYYRS returned an amyloid nucleation score of -1.5 ± 0.64.
The same measure for YNYLAMPQMLMEYFISVVVS: 2.05 ± 0.089.
The value for GGNCVVNSIFVDLAICYVRR was 9.818 ± 0.057; that for HATVHSSRCHSYHPGL was 6.707 ± 0.054.
The same measure for ACANGDADVEWLSDFCEKDE: 1.02 ± 0.35; for KDFFSVVSH: 0.573 ± 0.66.
Substance CLFVQSRIDYALNNLTVC gave an amyloid nucleation score of -0.755 ± 0.48.
The substance NFSYASNTEHRPVSNIFWEL yielded an amyloid nucleation score of -1.33 ± 0.62.
As to RPPPHCSCSSYSWDMYCILN, the amyloid nucleation score was 8.58 ± 0.072.
The value for CLYYEPVSL was -0.263 ± 1.1; that for CYLLN was -0.805 ± 0.44; that for FLECTSNIDVAMSPWLTLLN was -0.505 ± 1.1.
In the case of VKMFVF, the amyloid nucleation score is -0.221 ± 0.79.
The value for KERELSTTECCTILCSVLFY was 6.852 ± 0.059.
The value for AAIIISLSYMI was 2.23 ± 0.075; that for GGLDLRIMR was 2.41 ± 0.081.
Take IILRCNKDFEALACIVVSRR: the amyloid nucleation score result was “inactive”.
In turn, LQDLTWRLCFKVWCDHSPEN yielded an amyloid nucleation score of 4.08 ± 0.091.
The same measure for NKRHSGRFSVLQISA: 0.957 ± 0.15.
The same measure for VICEIMYNKMCDTSLRSSLS: 0.329 ± 0.65.
The value for VCTLRVSDNNLEKKSVLYMR was 3.97 ± 0.047; that for KLMLSALFLKVPAIIGRYRW was 0.736 ± 0.8.
On to KLALVDIGLVPVIAIMCWMS, for which the amyloid nucleation score stood at 0.877 ± 0.14.
As for LKGYSQVMRSSIGLWCFRKD, the amyloid nucleation score is -0.547 ± 0.49.
The same measure for YIVSSDLTGWGARRSCDFMA: 0.571 ± 0.47.
As for SLQSYGVYR, the amyloid nucleation score is -0.359 ± 0.76.
Substance HSFEFWIDTRWLVFINPYSR had an amyloid nucleation score of -0.846 ± 0.44.
The same measure for GFCKEYGEVLIIRLSDSCCD: -0.393 ± 0.56.
Take KWDIIYNNDVGNLCVLVSN: the amyloid nucleation score is -0.817 ± 1.
The same measure for GYCLMTFLISTCYG: 5.166 ± 0.031; for TSFLNLIFIYLALKRWLILF: 4.74 ± 0.06; for RGPTAHTFSARENP: -0.312 ± 0.45.
YTDIHESL: the amyloid nucleation score entry was “inactive”.
The value for SIKGIEVEYQGFRVCYSTVY was “inactive”; that for WRRPFM was 0.163 ± 0.3; that for RVIDLVTCKAHSGWSVLGYM was -0.402 ± 0.37.
The value for LFLVTVFRCVFFSQGI was -1.9 ± 1.1; that for VSDLRRMKDGC was “inactive”.
The value for RNGCLTIEW was 1.78 ± 0.12.
As for APRCALQLGS, the amyloid nucleation score is 1.27 ± 0.28.
As to NSVWANARRLTVCGAERGGT, the amyloid nucleation score came to 1.24 ± 0.17.
The same measure for LRLTRVYSSYRESVKKKI: 0.418 ± 0.21; for RKLLYCCEVATWCRGETSER: 4.33 ± 0.089.
Consider SSQSHGGRFQIEYFW, for which the amyloid nucleation score was -0.059 ± 0.33.
In the case of IRLARISWRSRHYSTHSGVS, the amyloid nucleation score was -0.076 ± 0.31.
In the case of CSCNRLDYWAVNGRARRFKL, the amyloid nucleation score is 0.932 ± 0.81.
The value for ITHMLLTGIPTQLSRV was -0.621 ± 0.74; that for ARLRC was 0.001 ± 0.28; that for TLGNKFLKSWYMGASKTMCV was -1.78 ± 0.75.
The substance VRGSNV yielded an amyloid nucleation score of -0.637 ± 0.33.
